Blank lines part the entries; values can stand above or below the molecule they belong to.
Experiments:
[1] = system: hVDAC1-shRNA-T-REx-293 cells; test: Apoptosis induced by various stimuli in cells expressing native or truncated mVDAC1; type: cell-based, human; conditions: for cell death in cells expressing native mVDAC1: hVDAC1-shRNA-T-REx-293 cells expressing mVDAC1
Method: (§1) Apoptotic cell death was analyzed by Acridine Orange/Ethidium Bromide staining.
(§2) T-REx-293 cells correspond to a transformed primary human embryonal kidney cell line, expressing the tetracycline repressor. hVDAC1-shRNA T-REx-293 cells stably expressing the pSUPERretro plasmid encoding shRNA targeting hVDAC1 were obtained and grown as described previously (Abu-Hamad et al. (2006), supra). […] Cell viability was analyzed by staining with acridine orange and ethidium bromide in PBS (Zaid et al. (2005). Cell death and differentiation, 12, 751-760). Images were recorded using Zeiss LSM510 confocal or Olympus IX51 fluorescence microscopes. Mitochondria preparation and measurements of ATP levels and Ca^+ accumulation were carried out as previously described (Abu-Hamad et al. (2006), supra).

HK-I [2] = molecular target: T1, HK-I (Rattus norvegicus, UniProt P05708); test: Real time surface plasmon resonance, immobilized HK-I; type: binding; conditions: SPR, increasing peptide concentrations
T1 construct: Purified rat brain HK-I; from tissue; host or cells: rat brain
T1 sequence (P05708 1-918): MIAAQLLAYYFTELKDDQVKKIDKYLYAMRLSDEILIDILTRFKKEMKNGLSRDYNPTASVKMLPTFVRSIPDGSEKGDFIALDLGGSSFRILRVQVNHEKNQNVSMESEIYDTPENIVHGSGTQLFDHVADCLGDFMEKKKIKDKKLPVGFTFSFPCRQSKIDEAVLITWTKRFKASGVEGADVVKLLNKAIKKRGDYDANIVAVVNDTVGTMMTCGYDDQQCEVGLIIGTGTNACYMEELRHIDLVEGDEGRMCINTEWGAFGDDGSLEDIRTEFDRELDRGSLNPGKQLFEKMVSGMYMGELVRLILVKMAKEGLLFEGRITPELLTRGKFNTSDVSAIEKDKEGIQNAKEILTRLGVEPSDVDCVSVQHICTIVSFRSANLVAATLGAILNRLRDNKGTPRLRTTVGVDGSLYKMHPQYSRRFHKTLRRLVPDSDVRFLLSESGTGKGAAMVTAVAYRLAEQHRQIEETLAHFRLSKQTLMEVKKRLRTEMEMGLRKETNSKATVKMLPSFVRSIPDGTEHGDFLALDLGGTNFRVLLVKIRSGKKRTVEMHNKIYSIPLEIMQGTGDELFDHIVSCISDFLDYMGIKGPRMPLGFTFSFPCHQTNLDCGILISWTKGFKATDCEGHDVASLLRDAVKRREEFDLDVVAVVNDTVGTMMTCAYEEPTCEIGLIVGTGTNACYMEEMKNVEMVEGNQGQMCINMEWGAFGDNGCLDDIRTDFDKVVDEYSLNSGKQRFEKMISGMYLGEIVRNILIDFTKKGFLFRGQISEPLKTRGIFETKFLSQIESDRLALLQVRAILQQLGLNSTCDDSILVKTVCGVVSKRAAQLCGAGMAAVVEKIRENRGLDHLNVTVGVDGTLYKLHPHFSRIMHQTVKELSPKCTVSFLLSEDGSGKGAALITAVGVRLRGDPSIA
Method: (§3) Surface plasmon resonance (SPR) using the ProteOn-XPR36 (Bio-Rad, USA) system was employed to study the interaction of VDAC1 N-terminal peptides with purified HK-I and Bcl2. Purified rat brain HK-I, recombinant Bcl2 and rabbit IgG were immobilized on a CM5 sensor surface according to the manufacture's instructions. N-terminal VDAC1 peptides were diluted in running buffer (150 mM NaCl, 0.005% Tween-20, 4% (V/V) DMSO, 10 mM PBS, pH, 7.4) and injected onto the sensor chip at varying concentrations at a flow rate of 40 μl/min at 25° C.

Bcl2 = Bcl2 (Homo sapiens, UniProt P10415); test: Real time surface plasmon resonance, immobilized Bcl2; type: binding; conditions: SPR, increasing peptide concentrations
Method: as §3

IgG = test: Real time surface plasmon resonance, immobilized IgG (control); type: binding, rabbit; conditions: SPR control
Method: as §3

[3] = Channel conductance of purified VDAC reconstituted into planar lipid bilayer; type: biochemical
Method: (§4) Briefly, PLB were prepared from soybean asolectin dissolved in n-decane (50 mg/ml) in a chamber containing 10 mM Hepes/KOH, pH 7.4 and 0.5 or 1M NaCl (cis/trans). Only PLBs with a resistance greater than 100 GΩ were used. Purified VDAC (about 1 ng) was added to the chamber defined as the cis side. After insertion of one or more channels into the PLB, excess protein was removed by perfusion of the cis chamber with 20 volumes of a same solution. Currents were recorded under voltage-clamp mode using a Bilayer Clamp amplifier (Warner Instruments, Hamden, Conn.). Currents were measured with respect to the trans side of the membrane (ground). The currents were low-pass filtered at 1 kHz, using a Bessal filter (Frequency Devices, Haverhill, Mass.) and digitized on-line using a Digidata 1200 interface board and pCLAMP 6 software (Axon Instruments). Sigma Plot 2000 scientific software was used for data analyses. Experiments were performed at 23-25° C.

[4] = system: T-REx-293 cells silenced for hVDAC1 expression; test: Cell death triggered by tetracycline-induced over-expression; type: cell-based, human; conditions: over-expression induced by 2.5 μg/ml tetracycline
Method: as §1, §2

HK-I [5] = molecular target: T1, HK-I; test: Effect of HK-I on channel activity of bilayer-reconstituted VDAC1; type: biochemical; conditions: HK-I (28 mU/ml), voltage step 0 to +40 mV
Method: as §4

[6] = system: hVDAC1-shRNA-T-REx-293 cells; test: Restoration of cell growth in T-REx-293 cells silenced for hVDAC1; type: cell-based, human; conditions: expression under tetracycline control; Trypan-Blue counting
Method: as §2

[7] = system: hVDAC1-shRNA T-REx-293 cells; test: Cytochrome c release induced by staurosporine (STS); type: cell-based, human; conditions: STS (1.25 μM) for 5 h; Western blotting

Chain of Bcl2 (P10415 whole entry, species assumed): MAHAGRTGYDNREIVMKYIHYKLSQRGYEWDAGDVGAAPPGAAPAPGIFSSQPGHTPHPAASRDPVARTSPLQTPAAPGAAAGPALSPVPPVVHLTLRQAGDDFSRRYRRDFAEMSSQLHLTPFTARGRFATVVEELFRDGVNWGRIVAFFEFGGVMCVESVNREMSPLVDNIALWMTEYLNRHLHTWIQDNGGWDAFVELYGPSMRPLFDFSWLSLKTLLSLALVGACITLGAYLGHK

Molecule: O=[As]O[As]=O (stereo not shown) [As2O3]
cell death in cells expressing native mVDAC1 [1]: induced death

Molecule: CN[C@@H]1C[C@H]2O[C@@](C)([C@@H]1OC)n1c3ccccc3c3c4c(c5c6ccccc6n2c5c31)C(=O)NC4 [Staurosporine]
cell death in cells expressing native mVDAC1 [1]: induced death

Molecule: COc1cc(/C=C/C(=O)CC(=O)/C=C/c2ccc(O)c(OC)c2)ccc1O [curcumin]
cell death in cells expressing native mVDAC1 [1]: induced death

binding to immobilized HK-I (HK-I [2]): did not interact | binding to immobilized Bcl2 (Bcl2): did not interact
Molecule: LP3: VDAC1-based peptide representing a loop (E157 to T174, 18 amino acids) predicted to face the intermembranal space (ETAKSRVTQSNFAVGYKT)

binding to immobilized HK-I (HK-I [2]): strongly bound | binding to IgG-immobilized chip (IgG): no signal | binding to immobilized Bcl2 (Bcl2): strongly bound
Molecule: VDAC1 N-terminal peptide: a peptide corresponding to the N-terminal region of VDAC1 (MAVPPTYADLGKSARDVFTKGYGFGL)

effect of HK-I on channel activity (HK-I [5]): no effect
B1: Δ(1-26)mVDAC1: N-terminal truncated mouse VDAC1 polypeptide lacking amino acids 1-26 (protein)
chain: IKLDLKTKSENGLEFTSSGSANTETTKVNGSLETKYRWTEYGLTFTEKWNTDNTLGTEITVEDQLARGLKLTFDSSFSPNTGKKNAKIKTGYKREHINLGCDVDFDIAGPSIRGALVLGYEGWLAGYQMNFETSKSRVTQSNFAVGYKTDEFQLHTNVNDGTEFGGSIYQKVNKKLETAVNLAWTAGNSNTRFGIAAKYQVDPDACFSAKVNNSSLIGLGYTQTLKPGIKLTLSALLDGKNVNAGGHKLGLGLEFQA
maximal conductance ([3]; at 1M NaCl): 4 nS | voltage dependence of conductance ([3]; planar lipid bilayer, FIG. 4): no voltage dependence | cell death on over-expression [4]: continue to grow over 8 days | apoptotic cell death ([4]; over 8 days): 5-8% | cell growth in cells silenced for hVDAC1 [6]: restored cell growth | cytochrome c release into the cytosol [7]: no cytochrome c release | sensitivity of expressing cells to induced apoptosis ([1]; curcumin (100 μM), As2O3 (60 μM) or STS (1.25 μM)): resistant
